Reference: US20220332804A1 (CSL INNOVATION, published 2022)

What was measured:
Assay in all cases: SPR; KD relative to WT C2;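 also: biacore SPR at 37 °C, anti-C2 mAbs captured on an anti-human IgG chip, alanine or serine C2 surface mutants tested, KD from 1:1 fit compared with wild-type C2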
[1] = molecular target: T1, human C2 Q447A (human, UniProt P06681 21-752)
T1 sequence: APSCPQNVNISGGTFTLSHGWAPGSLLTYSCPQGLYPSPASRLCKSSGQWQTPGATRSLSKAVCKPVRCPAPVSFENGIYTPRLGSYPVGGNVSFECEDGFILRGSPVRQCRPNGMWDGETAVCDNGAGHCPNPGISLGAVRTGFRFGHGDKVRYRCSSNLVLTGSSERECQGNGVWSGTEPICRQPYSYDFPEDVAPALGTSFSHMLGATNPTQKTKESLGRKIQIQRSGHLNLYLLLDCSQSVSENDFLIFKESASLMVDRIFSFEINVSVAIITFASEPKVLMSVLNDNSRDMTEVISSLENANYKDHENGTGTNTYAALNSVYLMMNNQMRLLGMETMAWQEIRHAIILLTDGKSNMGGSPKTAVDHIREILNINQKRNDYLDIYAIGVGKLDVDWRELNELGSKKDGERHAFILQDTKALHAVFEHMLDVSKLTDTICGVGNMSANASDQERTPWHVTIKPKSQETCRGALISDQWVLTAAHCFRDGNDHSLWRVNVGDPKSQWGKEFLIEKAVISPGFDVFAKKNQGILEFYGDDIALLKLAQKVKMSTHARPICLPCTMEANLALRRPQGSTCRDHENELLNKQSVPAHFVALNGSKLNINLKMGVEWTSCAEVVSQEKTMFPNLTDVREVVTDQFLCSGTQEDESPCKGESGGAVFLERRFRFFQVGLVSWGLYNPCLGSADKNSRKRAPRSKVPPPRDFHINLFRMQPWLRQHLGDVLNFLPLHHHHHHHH

[2] = molecular target: T2, human C2 A472S (human, UniProt P06681 21-752)
T2 sequence: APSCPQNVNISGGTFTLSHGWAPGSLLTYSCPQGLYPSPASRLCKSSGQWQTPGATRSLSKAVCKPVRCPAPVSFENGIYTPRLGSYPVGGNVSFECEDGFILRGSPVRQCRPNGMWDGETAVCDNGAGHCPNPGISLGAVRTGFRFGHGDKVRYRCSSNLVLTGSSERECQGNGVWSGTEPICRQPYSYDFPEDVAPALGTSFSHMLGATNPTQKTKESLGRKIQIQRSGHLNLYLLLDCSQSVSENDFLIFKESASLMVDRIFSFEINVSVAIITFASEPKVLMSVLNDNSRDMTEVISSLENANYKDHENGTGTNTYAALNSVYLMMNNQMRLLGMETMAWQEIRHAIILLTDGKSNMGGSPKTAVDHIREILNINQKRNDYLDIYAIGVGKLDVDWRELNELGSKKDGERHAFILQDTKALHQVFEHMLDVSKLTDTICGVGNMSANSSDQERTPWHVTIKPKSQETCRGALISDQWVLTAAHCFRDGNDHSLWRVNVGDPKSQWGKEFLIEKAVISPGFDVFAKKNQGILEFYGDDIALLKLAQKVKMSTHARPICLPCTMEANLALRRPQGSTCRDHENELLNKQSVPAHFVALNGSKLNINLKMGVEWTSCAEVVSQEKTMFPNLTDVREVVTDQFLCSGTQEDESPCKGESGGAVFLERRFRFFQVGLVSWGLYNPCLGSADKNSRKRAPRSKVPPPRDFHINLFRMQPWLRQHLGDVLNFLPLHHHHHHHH

[3] = molecular target: T3, human C2 G466A (human, UniProt P06681 21-752)
T3 sequence: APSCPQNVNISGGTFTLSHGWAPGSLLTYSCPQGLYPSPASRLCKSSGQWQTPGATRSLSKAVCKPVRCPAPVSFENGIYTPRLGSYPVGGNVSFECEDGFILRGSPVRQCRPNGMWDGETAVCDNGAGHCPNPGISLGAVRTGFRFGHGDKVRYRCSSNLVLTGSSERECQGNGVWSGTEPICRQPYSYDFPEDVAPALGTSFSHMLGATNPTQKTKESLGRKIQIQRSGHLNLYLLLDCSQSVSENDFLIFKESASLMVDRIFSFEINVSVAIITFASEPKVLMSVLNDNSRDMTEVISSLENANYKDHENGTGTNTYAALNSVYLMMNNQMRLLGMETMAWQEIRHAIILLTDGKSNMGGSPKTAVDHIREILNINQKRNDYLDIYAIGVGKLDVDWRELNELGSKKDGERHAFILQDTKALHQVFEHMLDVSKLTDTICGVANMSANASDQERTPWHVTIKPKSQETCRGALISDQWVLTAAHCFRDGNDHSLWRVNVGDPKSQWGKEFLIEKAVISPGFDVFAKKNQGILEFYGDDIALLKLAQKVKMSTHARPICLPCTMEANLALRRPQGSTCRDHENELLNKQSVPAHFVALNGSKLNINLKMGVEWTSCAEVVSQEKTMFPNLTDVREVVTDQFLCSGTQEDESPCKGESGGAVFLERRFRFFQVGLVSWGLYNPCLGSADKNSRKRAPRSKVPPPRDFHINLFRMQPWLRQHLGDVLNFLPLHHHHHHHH

[4] = molecular target: T4, human C2 D431A (human, UniProt P06681 21-752)
T4 sequence: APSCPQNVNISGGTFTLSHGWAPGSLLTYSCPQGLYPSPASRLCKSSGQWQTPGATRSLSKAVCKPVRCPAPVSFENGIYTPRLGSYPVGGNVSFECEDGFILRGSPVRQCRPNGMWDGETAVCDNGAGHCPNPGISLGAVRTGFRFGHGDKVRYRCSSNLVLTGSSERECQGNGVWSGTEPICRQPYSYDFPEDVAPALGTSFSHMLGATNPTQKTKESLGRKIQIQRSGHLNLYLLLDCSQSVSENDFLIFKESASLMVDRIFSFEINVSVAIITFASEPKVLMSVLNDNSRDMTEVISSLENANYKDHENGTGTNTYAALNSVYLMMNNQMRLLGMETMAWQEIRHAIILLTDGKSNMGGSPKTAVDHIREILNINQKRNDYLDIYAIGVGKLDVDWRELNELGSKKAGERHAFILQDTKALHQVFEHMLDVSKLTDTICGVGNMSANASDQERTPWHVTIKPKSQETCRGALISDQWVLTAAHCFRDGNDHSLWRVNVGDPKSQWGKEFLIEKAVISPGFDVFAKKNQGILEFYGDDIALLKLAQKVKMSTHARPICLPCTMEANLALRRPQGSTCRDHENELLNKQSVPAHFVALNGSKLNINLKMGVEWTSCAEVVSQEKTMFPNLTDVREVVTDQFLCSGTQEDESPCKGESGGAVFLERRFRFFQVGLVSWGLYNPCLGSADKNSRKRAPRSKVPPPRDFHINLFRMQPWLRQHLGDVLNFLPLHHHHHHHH

- Fold diff [1]: 4 fold
- Fold diff [2]: 8 fold
- Fold diff [3]: 5 fold
- Fold diff [4]: 2 fold
B1: RF16-214 (antibody, V domains shown)
VH: EVQLLESGGGLVQPGGSLRLSCAASGFTFSWYQMMWVRQAPGKGLEWVSRIYPSGGGTAYADSVKGRFTISRDNSKNTLYLQMNSLRAEDTAVYYCARDAGYGDNWGQGTLVTVSS
VL: QSALTQPPSVSVSPGQTASITCSGDKLGEKYASWYQQKAGQSPVMVIYQDRKRPSGIPERFSGSNSGNTATLTISGTQAMDEADYYCQAWDTRAVVFGGGTKLTVLG
